Assays:
ACOX-1.1 = target: T1, ACOX-1.1 (Caenorhabditis elegans, UniProt O62140); assay: LC-MS assay with MAOC-1, DHS-28, DAF-22; peroxidase-coupled H2O2 assay; format: biochemical; conditions: LC-MS: 40 μM substrate, 20 μM FAD, 20 μM NAD+, 200 μM CoA, pH 7.5, 30 °C; coupled: 24 µM substrate, ~23 °C
T1 construct: pET-16b-acox-1.1a, expressed in E. coli and purified, homodimer
T1 sequence (O62140 1-674): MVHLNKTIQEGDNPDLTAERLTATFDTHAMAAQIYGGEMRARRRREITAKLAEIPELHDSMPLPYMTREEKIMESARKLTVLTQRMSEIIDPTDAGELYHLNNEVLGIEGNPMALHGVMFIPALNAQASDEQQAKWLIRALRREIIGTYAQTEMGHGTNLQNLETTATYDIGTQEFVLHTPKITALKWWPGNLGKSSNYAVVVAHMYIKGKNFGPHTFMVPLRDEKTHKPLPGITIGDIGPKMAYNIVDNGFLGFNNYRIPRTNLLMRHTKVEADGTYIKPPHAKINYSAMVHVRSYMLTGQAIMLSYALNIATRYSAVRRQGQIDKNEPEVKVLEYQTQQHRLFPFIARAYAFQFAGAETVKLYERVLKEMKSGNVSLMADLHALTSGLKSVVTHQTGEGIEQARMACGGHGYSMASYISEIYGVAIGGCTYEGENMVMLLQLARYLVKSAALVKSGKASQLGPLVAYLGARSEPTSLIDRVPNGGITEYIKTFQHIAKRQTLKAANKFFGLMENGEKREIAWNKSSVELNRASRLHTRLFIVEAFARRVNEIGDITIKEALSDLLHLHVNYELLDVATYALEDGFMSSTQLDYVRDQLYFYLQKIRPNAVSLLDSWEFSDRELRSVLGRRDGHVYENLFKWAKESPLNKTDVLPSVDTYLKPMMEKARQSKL

purified protein = substrate: C[C@H](CCCCCCC(=O)O)O[C@@H]1O[C@@H](C)[C@H](OC(=O)c2c[nH]c3ccccc23)C[C@H]1O; assay: purified protein; format: biochemical, Caenorhabditis elegans; conditions: 7.5 mM ATP, 1 mM CoA, 10 mM MgCl2, 1.6 mM Triton X-100, pH 7.4, 22 °C

`C[C@H](CCCCCCC(=O)SCCNC(=O)CCNC(=O)[C@H](O)C(C)(C)COP(=O)(O)OP(=O)(O)OC[C@H]1O[C@@H](n2cnc3c(N)ncnc32)[C@H](O)[C@@H]1OP(=O)(O)O)O[C@@H]1O[C@@H](C)[C@H](OC(=O)c2c[nH]c3ccccc23)C[C@H]1O` [IC-asc-C9-CoA] was tested, and the “LC-MS assay with MAOC-1, DHS-28, DAF-22; peroxidase-coupled H2O2 assay” value (ACOX-1.1) was “It also showed activity towards IC-asc-C9-CoA, but less than towards IC-asc-C7-CoA”.

B1: ACS-7 (Caenorhabditis elegans) (protein)
chain: MIFHGEQLENHDKPVHEVLLERFKVHQEKDPDNVAFVTAENEDDSLGFQQLGKKVLQISEWFVENGYKKGDVFLLASYNNWRCFAAALGAWRAGLIVSAAASQFTSFEMNYQIEDSQSQVILVDKHTLPVVQEACKNLKFVKQIISISANPPSPVIKFDVLTSRLVRNLKMPLIDPKNDIVFLPYSSGTTGKPKGVMISHLNFSMMLESSLRFFDANAKAIGLPPDFVLPYDLHFLPMYHAMGMFRTLLTSYRGTTQIMFTKFDMELMLKNIEKYSIMVLSLVPAIAVRMLNSPLLQKYDVSSLVSVTVGSAPFPESASKKLKQLLPNVNIVQGYGMTELTFATHLQSPGSPDGSVGRLVPGTSMKVKKEDGTLCGPHEIGELWIKGPQMMKGYWKKEQQTNELLDEHGFMRTGDIVYFDKNGETFICDRIKELIKVNAKQVAPAELESVILEHDDVADVCVFGVDDASSGERPVACVVSKRGRDMETSKAIMKHINQKLARYKHIKEIEFVSEIMRTGTGKLLRRAMKKAFLDAKKAKL
notes: full-length from cDNA library, pET-22b (NdeI/XhoI), His-tagged, E. coli BL21(DE3), Ni-NTA and Superdex 200
B1 showed a Km (purified protein) of 14.5 ± 3.0 µM and a kcat (purified protein) of 0.53 ± 0.08 s⁻¹.
